# Laboratory results as given in US20140274782A1, “AFFINITY REAGENTS AND METHODS FOR DETECTION, PURIFICATION, AND PROTEOMIC ANALYSIS OF METHYLATED PROTEINS” (The Board of Trustees of the Leland Stanford Junior …, priority 2013, published 2014).
# T1: G9a and GLP (Homo sapiens, UniProt Q96KQ7+Q9H9B1)
# T1 sequence (Q96KQ7 2-1210 limits assumed): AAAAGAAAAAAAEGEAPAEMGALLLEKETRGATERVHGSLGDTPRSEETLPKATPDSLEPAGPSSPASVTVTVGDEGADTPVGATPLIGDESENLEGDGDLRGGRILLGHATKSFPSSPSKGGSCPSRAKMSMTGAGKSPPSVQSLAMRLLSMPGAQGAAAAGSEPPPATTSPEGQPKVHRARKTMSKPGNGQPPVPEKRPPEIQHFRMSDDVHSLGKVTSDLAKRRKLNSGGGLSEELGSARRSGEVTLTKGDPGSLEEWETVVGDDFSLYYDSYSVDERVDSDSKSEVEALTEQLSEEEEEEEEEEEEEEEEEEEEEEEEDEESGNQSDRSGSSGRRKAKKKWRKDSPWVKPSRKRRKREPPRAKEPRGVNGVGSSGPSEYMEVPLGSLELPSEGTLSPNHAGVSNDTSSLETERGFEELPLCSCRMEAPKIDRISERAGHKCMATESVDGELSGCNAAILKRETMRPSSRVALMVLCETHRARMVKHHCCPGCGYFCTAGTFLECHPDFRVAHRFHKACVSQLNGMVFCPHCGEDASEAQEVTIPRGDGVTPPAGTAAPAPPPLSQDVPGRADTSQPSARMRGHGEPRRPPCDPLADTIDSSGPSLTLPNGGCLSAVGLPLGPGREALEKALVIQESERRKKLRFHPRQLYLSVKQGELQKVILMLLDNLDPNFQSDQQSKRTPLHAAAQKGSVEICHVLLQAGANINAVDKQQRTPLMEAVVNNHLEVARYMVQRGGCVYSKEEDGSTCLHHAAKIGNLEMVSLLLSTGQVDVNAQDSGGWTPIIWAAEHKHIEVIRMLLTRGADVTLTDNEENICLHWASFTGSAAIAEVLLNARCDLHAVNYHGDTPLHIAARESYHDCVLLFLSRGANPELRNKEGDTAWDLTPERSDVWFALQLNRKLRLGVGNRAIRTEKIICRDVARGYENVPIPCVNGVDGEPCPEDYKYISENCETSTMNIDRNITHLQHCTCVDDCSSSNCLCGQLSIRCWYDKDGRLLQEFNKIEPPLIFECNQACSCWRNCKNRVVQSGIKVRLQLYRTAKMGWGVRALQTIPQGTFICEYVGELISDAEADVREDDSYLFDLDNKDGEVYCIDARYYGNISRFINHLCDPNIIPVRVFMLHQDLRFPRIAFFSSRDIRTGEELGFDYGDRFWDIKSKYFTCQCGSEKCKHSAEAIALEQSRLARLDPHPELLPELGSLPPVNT
# T1 sequence (Q9H9B1 2-1298 limits assumed): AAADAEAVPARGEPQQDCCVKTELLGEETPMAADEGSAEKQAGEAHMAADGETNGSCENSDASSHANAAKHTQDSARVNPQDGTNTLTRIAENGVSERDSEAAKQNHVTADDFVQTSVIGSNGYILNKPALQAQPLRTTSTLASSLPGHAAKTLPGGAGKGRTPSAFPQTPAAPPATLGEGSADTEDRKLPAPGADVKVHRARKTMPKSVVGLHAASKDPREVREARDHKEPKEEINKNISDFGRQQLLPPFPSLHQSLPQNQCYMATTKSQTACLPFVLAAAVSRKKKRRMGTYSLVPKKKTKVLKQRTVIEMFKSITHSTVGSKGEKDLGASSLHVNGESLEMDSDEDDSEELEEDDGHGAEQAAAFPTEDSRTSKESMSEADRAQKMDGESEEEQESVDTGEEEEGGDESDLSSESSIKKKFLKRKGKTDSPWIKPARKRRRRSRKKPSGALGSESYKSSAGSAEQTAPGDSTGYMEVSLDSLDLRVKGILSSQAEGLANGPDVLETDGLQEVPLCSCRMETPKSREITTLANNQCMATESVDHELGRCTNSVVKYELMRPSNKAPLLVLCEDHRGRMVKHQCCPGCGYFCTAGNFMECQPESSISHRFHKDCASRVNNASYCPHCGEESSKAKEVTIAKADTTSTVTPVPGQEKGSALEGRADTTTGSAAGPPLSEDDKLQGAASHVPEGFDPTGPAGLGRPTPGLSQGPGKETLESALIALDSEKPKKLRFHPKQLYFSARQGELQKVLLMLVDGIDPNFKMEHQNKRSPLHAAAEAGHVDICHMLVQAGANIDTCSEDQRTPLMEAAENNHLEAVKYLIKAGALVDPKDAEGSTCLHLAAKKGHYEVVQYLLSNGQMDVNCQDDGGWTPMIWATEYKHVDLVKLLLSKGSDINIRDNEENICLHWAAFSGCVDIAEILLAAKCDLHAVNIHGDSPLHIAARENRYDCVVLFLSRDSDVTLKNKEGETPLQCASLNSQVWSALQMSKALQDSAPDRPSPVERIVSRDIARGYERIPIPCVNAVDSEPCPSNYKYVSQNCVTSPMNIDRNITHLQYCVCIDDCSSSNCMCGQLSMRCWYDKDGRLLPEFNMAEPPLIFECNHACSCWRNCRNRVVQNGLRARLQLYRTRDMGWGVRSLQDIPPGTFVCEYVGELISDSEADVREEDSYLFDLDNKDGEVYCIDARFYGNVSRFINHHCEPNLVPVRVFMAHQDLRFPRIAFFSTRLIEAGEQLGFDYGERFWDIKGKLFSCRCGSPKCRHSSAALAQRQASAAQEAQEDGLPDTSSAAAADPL
# Assays:
# [1] = system: 3×MBT domain of L3MBTL1; test: Triple SILAC pull-down, 3xMBT/3xMBTD355N ratio (cytoplasmic, nuclear and chromatin fractions of 293T cells); assay type: binding, human; conditions: SILAC ratio 3xMBT vs 3xMBTD355N pull-down, 293T cells, all values in log base 2; for 3xMBT/D355N UNC Heavy: experiment with UNC0638 in heavy SILAC media; for 3xMBT/D355N UNC Light: experiment with UNC0638 in light SILAC media;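 as to all read-outs here: proteins quantified with MaxQuant, requiring at least two unique peptides and quantification in both label directions, normalized to the mean of proteins from a digested loading control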
# [2] = target: T1, G9a and GLP; test: Triple SILAC pull-down after UNC0638 treatment of 293T cells, DMSO/UNC0638 ratio of protein captured by 3×MBT; assay type: cell-based; set-up: endogenous in cells; host or cells: HEK 293T; conditions: all values in log base 2; for Relative to UNC0638 UNC Heavy / Relative to UNC0638 UNC Light: SILAC ratio DMSO relative to UNC0638, pull-down with 3xMBT; for Relative to UNC0638 UNC Heavy: UNC0638 in heavy SILAC media; for Relative to UNC0638 UNC Light: UNC0638 in light SILAC media; for Relative to UNC0638 Average: average of UNC Light and UNC Heavy experiments;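 as to all read-outs here: mass spectrometry (Q-Exactive) SILAC quantitation, DMSO/UNC0638 ratio computed after subtracting 3×MBTD355N mutant pull-down background, only proteins with at least twofold 3×MBT over mutant signal considered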
Relative to UNC0638 UNC Heavy [2] [log base 2],Relative to UNC0638 UNC Light [2] [log base 2],Relative to UNC0638 Average [2] [log base 2],Molecule,3xMBT/D355N UNC Heavy [1] [log base 2],3xMBT/D355N UNC Light [1] [log base 2]
0.17,0.04,0.10,"PRDX1 (protein, UniProt Q06830 2-199, looked up) Peroxiredoxin-1: SSGNAKIGHPAPNFKATAVMPDGQFKDISLSDYKGKYVVFFFYPLDFTFVCPTEIIAFSDRAEEFKKLNCQVIGASVDSHFCHLAWVNTPKKQGGLGPMNIPLVSDPKRTIAQDYGVLKADEGISFRGLFIIDDKGILRQITVNDLPVGRSVDETLRLVQAFQFTDKHGEVCPAGWKPGSDTIKPDVQKSKEYFSKQK",1.65,1.98
0.10,0.10,0.10,"DEK (protein, UniProt P35659 2-375, looked up) Protein DEK: SASAPAAEGEGTPTQPASEKEPEMPGPREESEEEEDEDDEEEEEEEKEKSLIVEGKREKKKVERLTMQVSSLQREPFTIAQGKGQKLCEIERIHFFLSKKKTDELRNLHKLLYNRPGTVSSLKKNVGQFSGFPFEKGSVQYKKKEEMLKKFRNAMLKSICEVLDLERSGVNSELVKRILNFLMHPKPSGKPLPKSKKTCSKGSKKERNSSGMARKAKRTKCPEILSDESSSDEDEKKNKEESSDDEDKESEEEPPKKTAKREKPKQKATSKSKKSVKSANVKKADSSTTKKNQNSSKKESESEDSSDDEPLIKKLKKPPTDEELKETIKKLLASANLEEVTMKQICKKVYENYPTYDLTERKDFIKTTVKELIS",2.38,2.01
0.28,−0.08,0.10,"HPRT1 (protein, UniProt P00492 2-218, looked up) Hypoxanthine-guanine …: ATRSPGVVISDDEPGYDLDLFCIPNHYAEDLERVFIPHGLIMDRTERLARDVMKEMGGHHIVALCVLKGGYKFFADLLDYIKALNRNSDRSIPMTVDFIRLKSYCNDQSTGDIKVIGGDDLSTLTGKNVLIVEDIIDTGKTMQTLLSLVRQYNPKMVKVASLLVKRTPRSVGYKPDFVGFEIPDKFVVGYALDYNEYFRDLNHVCVISETGKAKYKA",2.51,1.19
0.49,−0.29,0.10,"UBTF (protein, UniProt P17480 1-764, looked up) Nucleolar transcription …: MNGEADCPTDLEMAAPKGQDRWSQEDMLTLLECMKNNLPSNDSSKFKTTESHMDWEKVAFKDFSGDMCKLKWVEISNEVRKFRTLTELILDAQEHVKNPYKGKKLKKHPDFPKKPLTPYFRFFMEKRAKYAKLHPEMSNLDLTKILSKKYKELPEKKKMKYIQDFQREKQEFERNLARFREDHPDLIQNAKKSDIPEKPKTPQQLWYTHEKKVYLKVRPDATTKEVKDSLGKQWSQLSDKKRLKWIHKALEQRKEYEEIMRDYIQKHPELNISEEGITKSTLTKAERQLKDKFDGRPTKPPPNSYSLYCAELMANMKDVPSTERMVLCSQQWKLLSQKEKDAYHKKCDQKKKDYEVELLRFLESLPEEEQQRVLGEEKMLNINKKQATSPASKKPAQEGGKGGSEKPKRPVSAMFIFSEEKRRQLQEERPELSESELTRLLARMWNDLSEKKKAKYKAREAALKAQSERKPGGEREERGKLPESPKRAEEIWQQSVIGDYLARFKNDRVKALKAMEMTWNNMEKKEKLMWIKKAAEDQKRYERELSEMRAPPAATNSSKKMKFQGEPKKPPMNGYQKFSQELLSNGELNHLPLKERMVEIGSRWQRISQSQKEHYKKLAEEQQKQYKVHLDLWVKSLSPQDRAAYKEYISNKRKSMTKLRGPNPKSSRTTLQSKSESEEDDEEDEDDEDEDEEEEDDENGDSSEDGGDSSESSSEDESEDGDENEEDDEDEDDDEDDDEDEDNESEGSSSSSSSSGDSSDSDSN",2.47,1.93
0.01,0.19,0.10,"HNRNPM (protein, UniProt P52272 2-730, looked up) Heterogeneous nuclear …: AAGVEAAAEVAATEIKMEEESGAPGVPSGNGAPGPKGEGERPAQNEKRKEKNIKRGGNRFEPYANPTKRYRAFITNIPFDVKWQSLKDLVKEKVGEVTYVELLMDAEGKSRGCAVVEFKMEESMKKAAEVLNKHSLSGRPLKVKEDPDGEHARRAMQKVMATTGGMGMGPGGPGMITIPPSILNNPNIPNEIIHALQAGRLGSTVFVANLDYKVGWKKLKEVFSMAGVVVRADILEDKDGKSRGIGTVTFEQSIEAVQAISMFNGQLLFDRPMHVKMDERALPKGDFFPPERPQQLPHGLGGIGMGLGPGGQPIDANHLNKGIGMGNIGPAGMGMEGIGFGINKMGGMEGPFGGGMENMGRFGSGMNMGRINEILSNALKRGEIIAKQGGGGGGGSVPGIERMGPGIDRLGGAGMERMGAGLGHGMDRVGSEIERMGLVMDRMGSVERMGSGIERMGPLGLDHMASSIERMGQTMERIGSGVERMGAGMGFGLERMAAPIDRVGQTIERMGSGVERMGPAIERMGLSMERMVPAGMGAGLERMGPVMDRMATGLERMGANNLERMGLERMGANSLERMGLERMGANSLERMGPAMGPALGAGIERMGLAMGGGGGASFDRAIEMERGNFGGSFAGSFGGAGGHAPGVARKACQIFVRNLPFDFTWKMLKDKFNECGHVLYADIKMENGKSKGCGVVKFESPEVAERACRMMNGMKLSGREIDVRIDRNA",3.18,2.44
